B1: HEEH_KT_rd6_0007 (parent)
chain: SIEEEIKKAEEAKEKGKTFIHGDFVATTEELLDELLKRLRKKL

Variants of: B1
Test: folding stability dG (cDNA display proteolysis); higher = more stable
Conditions: PBS, room temperature

Variant | folding stability dG [kcal/mol]
G22R | 0.665
G22P | 0.931
G22I | 1.45
G22D | 0.958
G22W | 1.53
G22L | 1.2
G22F | 1.14
G22N | 0.979
G22H | 1.02
G22T | 0.814
G22E | 1.12
G22K | 0.822
G22Q | 0.893
G22A | 0.902
G22V | 1.09
G22S | 0.873
G22M | 1.15
I20L | 0.842
I20E | 0.927
I20V | 1.27
I20G | 0.637
I20W | 1.13
I20P | 0.732
I20F | 0.891

Variant | folding stability dG [kcal/mol]
I20S | 0.913
I20N | 0.801
I20K | 0.994
I20C | 2.04
I20R | 0.918
I20D | 0.774
I20Q | 1.27
I20T | 1.25
I20A | 1.03
I20M | 0.979
I20Y | 1.02
I20H | 0.961
T18I | 1.67
T18M | 1.32
T18H | 1.16
T18Y | 1.37
T18V | 1.48
T18K | 1.1
T18Q | 1.28
T18D | 0.988
T18S | 1.21
T18P | 1.32
T18W | 1.76
T18A | 1.3

Variant | folding stability dG [kcal/mol]
T18E | 1.12
T18G | 1.23
T18L | 1.07
T18F | 1.3
T18R | 1.09
T18N | 1.07
E11N | 0.868
E11Q | 1.06
E11V | 0.953
E11K | 0.817
E11A | 1.16
E11M | 1.05
E11W | 1.2
E11Y | 1.17
E11H | 0.939
E11C | 1.5
E11P | 0.576
E11S | 0.928
E11L | 1.1
E11I | 1.03
E11T | 1.04
E11G | 0.705
E11D | 1.27
E11R | 0.941

Variant | folding stability dG [kcal/mol]
E11F | 0.946
F24A | 0.492
F24M | 0.889
F24I | 1.03
F24P | 0.489
F24R | -0.367
F24C | 1.49
F24V | 0.78
F24E | 0.854
F24G | 0.708
F24N | 0.509
F24T | 0.846
F24Q | 0.726
F24D | 0.649
F24K | 0.243
F24S | 0.627
F24L | 0.965
F24H | 0.746
A12H | 0.753
A12M | 0.749
A12T | 0.618
A12S | 0.754
A12N | 0.603
A12W | 0.691

Variant | folding stability dG [kcal/mol]
A12V | 0.505
A12K | 0.526
A12Y | 0.791
A12D | 0.737
A12L | 0.688
A12Q | 0.606
A12F | 0.689
A12G | 0.482
A12E | 0.703
A12I | 0.771
A12R | 0.639
A12P | 0.459
A12C | 1.78
K17G | 1.48
K17A | 1.23
K17Q | 1.47
K17F | 1.82
K17S | 1.18
K17T | 1.43
K17N | 1.36
K17Y | 1.71
K17D | 1.19
K17W | 1.84
K17P | 0.793

Variant | folding stability dG [kcal/mol]
K17I | 1.59
K17V | 1.43
K17M | 1.66
K17H | 1.44
K17R | 1.13
K17L | 1.9
K17E | 1.67
K17C | 2.53
E10C | 1.49
E10G | 0.706
E10V | 1.17
E10I | 1.32
E10F | 1.07
E10N | 0.992
E10S | 0.844
E10W | 1.06
E10R | 1.02
E10L | 1.58
E10T | 1.06
E10Y | 1
E10P | 0.607
E10A | 0.805
E10K | 1.04
E10H | 0.9

Variant | folding stability dG [kcal/mol]
E10D | 0.699
E10Q | 1.2
E10M | 1.44
E14K | 1.56
E14F | 1.31
E14V | 1.25
E14M | 1.42
E14G | 1.19
E14I | 1.45
E14N | 1.21
E14W | 1.37
E14H | 1.21
E14A | 1.73
E14T | 1.3
E14S | 1.4
E14R | 1.68
E14D | 1.1
E14L | 1.58
E14Y | 1.33
E14Q | 1.42
E14P | 0.587
I6W | 0.615
I6Y | 0.676
